We go through 36 variants from the Human Domainome abundance scans (Beltran et al. 2025).

± gives the uncertainty stated by the source.

B1: Androgen receptor, residues 557 to 632; numbered along this chain, P10275 (parent)
chain: QKTCLICGDEASGCHYGALTCGSCKVFFKRAAEGKQKYLCASRNDCTIDKFRRKNCPSCRLRKCYEAGMTLGARKL

This data set covers variants of B1. Briefly: abundance fitness (aPCA) (normalised: wild type 0, dead -1); higher = more abundant; growth selection in yeast, the domain comes from the species named. The settings on record: Homo sapiens.
Regarding QKTCLICGDEASGCHYGALTCGSCKVFFKRAAEGKQKYMCASRNDCTIDKFRRKNCPSCRLRKCYEAGMTLGARKL [L39M], the abundance fitness turned out to be 0.047 ± 0.045.

Turning to QKTCLICGDEASGCHYGALTCGSCKVFFKRAAEGKQKYRCASRNDCTIDKFRRKNCPSCRLRKCYEAGMTLGARKL [L39R], the abundance fitness was -0.006 ± 0.028.

QKTCLICGDEASGCHYGALTCGSCKVFFKRAAEGKQKYTCASRNDCTIDKFRRKNCPSCRLRKCYEAGMTLGARKL [L39T]: the abundance fitness was -0.032 ± 0.035.

For QKTCLICGDEASGCHYGALTCGSCKVFFKRAAEGKQKYKCASRNDCTIDKFRRKNCPSCRLRKCYEAGMTLGARKL [L39K], the abundance fitness came out at 0.094 ± 0.036.

For the variant QKTCLICGDEASGCHYGALTCGSCKVFFKRAAEGKQKYGCASRNDCTIDKFRRKNCPSCRLRKCYEAGMTLGARKL [L39G], the abundance fitness was -0.009 ± 0.03.

In the case of QKTCLICGDEASGCHYGALTCGSCKVFFKRAAEGKQKYPCASRNDCTIDKFRRKNCPSCRLRKCYEAGMTLGARKL [L39P], the abundance fitness was -0.086 ± 0.038.

On to QKTCLICGDEASGCHYGALTCGSCKVFFKRAAEGKQKYYCASRNDCTIDKFRRKNCPSCRLRKCYEAGMTLGARKL [L39Y], for which the abundance fitness amounted to 0.045 ± 0.046.

For the variant QKTCLICGDEASGCHYGALTCGSCKVFFKRAAEGKQKYWCASRNDCTIDKFRRKNCPSCRLRKCYEAGMTLGARKL [L39W], the abundance fitness is -0.064 ± 0.044.

QKTCLICGDEASGCHYGALTCGSCKVFFKRAAEGKQKYCCASRNDCTIDKFRRKNCPSCRLRKCYEAGMTLGARKL [L39C]: the abundance fitness is -0.069 ± 0.053.

In the case of QKTCLICGDEASGCHYGALTCGSCKVFFKRAAEGKQKYSCASRNDCTIDKFRRKNCPSCRLRKCYEAGMTLGARKL [L39S], the abundance fitness is -0.128 ± 0.031.

In the case of QKTCLICGDEASGCHYGALTCGSCKVFFKRAAEGKQKYQCASRNDCTIDKFRRKNCPSCRLRKCYEAGMTLGARKL [L39Q], the abundance fitness stood at 0.011 ± 0.041.

Turning to QKTCLICGDEASGCHYGALTCGSCKVFFKRAAEGKQKYVCASRNDCTIDKFRRKNCPSCRLRKCYEAGMTLGARKL [L39V], the abundance fitness stood at 0.029 ± 0.031.

For QKTCLICGDEASGCHYGALTCGSCKVFFKRAAEGKQKYNCASRNDCTIDKFRRKNCPSCRLRKCYEAGMTLGARKL [L39N], the abundance fitness was -0.008 ± 0.038.

Take QKTCLICGDEASGCHYGALTCGSCKVFFKRAAEGKQKYHCASRNDCTIDKFRRKNCPSCRLRKCYEAGMTLGARKL [L39H]: the abundance fitness is -0.033 ± 0.041.

For QKTCLICGDEASGCHYGALTCGSCKVFFKRAAEGKQKYDCASRNDCTIDKFRRKNCPSCRLRKCYEAGMTLGARKL [L39D], the abundance fitness is -0.068 ± 0.047.

Take QKTCLICGDEASGCHYGALTCGSCKVFFKRAAEGKQKYECASRNDCTIDKFRRKNCPSCRLRKCYEAGMTLGARKL [L39E]: the abundance fitness was found to be 0.054 ± 0.036.

Consider QKTCLICGDEASGCHYGALTCGSCKVFFKRAAEGKQKPLCASRNDCTIDKFRRKNCPSCRLRKCYEAGMTLGARKL [Y38P], for which the abundance fitness is -0.007 ± 0.063.

On to QKTCLICGDEASGCHYGALTCGSCKVFFKRAAEGKQKQLCASRNDCTIDKFRRKNCPSCRLRKCYEAGMTLGARKL [Y38Q], for which the abundance fitness was -0.072 ± 0.086.

Turning to QKTCLICGDEASGCHYGALTCGSCKVFFKRAAEGKQKALCASRNDCTIDKFRRKNCPSCRLRKCYEAGMTLGARKL [Y38A], the abundance fitness is -0.057 ± 0.067.

As to QKTCLICGDEASGCHYGALTCGSCKVFFKRAAEGKQKCLCASRNDCTIDKFRRKNCPSCRLRKCYEAGMTLGARKL [Y38C], the abundance fitness was -0.305 ± 0.11.

Regarding QKTCLICGDEASGCHYGALTCGSCKVFFKRAAEGKQKDLCASRNDCTIDKFRRKNCPSCRLRKCYEAGMTLGARKL [Y38D], the abundance fitness was -0.059 ± 0.094.

Turning to QKTCLICGDEASGCHYGALTCGSCKVFFKRAAEGKQKILCASRNDCTIDKFRRKNCPSCRLRKCYEAGMTLGARKL [Y38I], the abundance fitness stood at 0.111 ± 0.1.

Regarding QKTCLICGDEASGCHYGALTCGSCKVFFKRAAEGKQKVLCASRNDCTIDKFRRKNCPSCRLRKCYEAGMTLGARKL [Y38V], the abundance fitness is -0.092 ± 0.063.

Consider QKTCLICGDEASGCHYGALTCGSCKVFFKRAAEGKQKWLCASRNDCTIDKFRRKNCPSCRLRKCYEAGMTLGARKL [Y38W], for which the abundance fitness was -0.239 ± 0.11.

For the variant QKTCLICGDEASGCHYGALTCGSCKVFFKRAAEGKQKFLCASRNDCTIDKFRRKNCPSCRLRKCYEAGMTLGARKL [Y38F], the abundance fitness was -0.097 ± 0.093.

Consider QKTCLICGDEASGCHYGALTCGSCKVFFKRAAEGKQKKLCASRNDCTIDKFRRKNCPSCRLRKCYEAGMTLGARKL [Y38K], for which the abundance fitness was -0.085 ± 0.099.

On to QKTCLICGDEASGCHYGALTCGSCKVFFKRAAEGKQKNLCASRNDCTIDKFRRKNCPSCRLRKCYEAGMTLGARKL [Y38N], for which the abundance fitness is -0.245 ± 0.094.

For QKTCLICGDEASGCHYGALTCGSCKVFFKRAAEGKQKRLCASRNDCTIDKFRRKNCPSCRLRKCYEAGMTLGARKL [Y38R], the abundance fitness is -0.239 ± 0.058.

In the case of QKTCLICGDEASGCHYGALTCGSCKVFFKRAAEGKQKGLCASRNDCTIDKFRRKNCPSCRLRKCYEAGMTLGARKL [Y38G], the abundance fitness is -0.222 ± 0.064.

With QKTCLICGDEASGCHYGALTCGSCKVFFKRAAEGKQKTLCASRNDCTIDKFRRKNCPSCRLRKCYEAGMTLGARKL [Y38T], the abundance fitness is -0.179 ± 0.08.

QKTCLICGDEASGCHYGALTCGSCKVFFKRAAEGKQKLLCASRNDCTIDKFRRKNCPSCRLRKCYEAGMTLGARKL [Y38L]: the abundance fitness was -0.046 ± 0.049.

Regarding QKTCLICGDEASGCHYGALTCGSCKVFFKRAAEGKQKHLCASRNDCTIDKFRRKNCPSCRLRKCYEAGMTLGARKL [Y38H], the abundance fitness was -0.231 ± 0.095.

Regarding QKTCLICGDEASGCHYGALTCGSCKVFFKRAAEGKQKELCASRNDCTIDKFRRKNCPSCRLRKCYEAGMTLGARKL [Y38E], the abundance fitness is -0.064 ± 0.083.

Consider QKTCLICGDEASGCHYGALTCGSCKVFFKRAAEGKQKMLCASRNDCTIDKFRRKNCPSCRLRKCYEAGMTLGARKL [Y38M], for which the abundance fitness is -0.036 ± 0.09.

On to QKTCLICGDEASGCHYGALTCGSCKVFFKRAAEGKQKSLCASRNDCTIDKFRRKNCPSCRLRKCYEAGMTLGARKL [Y38S], for which the abundance fitness was -0.116 ± 0.061.

Consider QKTCLICGDEASGCHYGALTCGSCKVFFKRAAEGKQVYLCASRNDCTIDKFRRKNCPSCRLRKCYEAGMTLGARKL [K37V], for which the abundance fitness is -0.058 ± 0.046.
